A short description of the data set: label from the status in PepcDB records.
As for “MTRRGVALVARRLPSSPGRVYAVKIDEGEDVHSVLSSLAEAEDLGFAMVTGIGGMAEATVAFYSPPEATYYTVDVKPPEGRVIEVAAMTGNIVKTSQGYSVHIHVALGVSPGKSISGHLVKGVVKPFMEVFVVELVSGQGTPGTSVFDHREGFKASYKRLELEHHHHHH”, the protein production entry is “failed”.

As for “MTRRPLLLPALGLALGVGLGLEGATVPPAALGALPLALLPRLAPLAFAAAGWLAAASARVPPAAPPDGAVLVRGRVVGAPDRLEDRLRFPVRTAGGALLEAWAEPTPWPLALGDEVLFRATLRAPAGRRNPGGRDPGDRLRSGGAALVALADGPVVRTAAPAAASRLERARDRLAEAAGRWLPPDQAALVRAIGTGDRAALDPEASASFARSGLAHVLAVSGFHLVVVAFGLERLLRALLLRADAVAARADPRRVAAALTLPCALLYALATGAGAPVVRAALAAAVILAGALLDRAADPLNSLALAALAILAAEPAALLDASFQLSFAAVAGLALWATPLRGALPVARPAPGSWRARLLEPFLSGAAATVAATLATAPVLAFHFRQLPLLGVAANVAAIPLGAALTALAALAAVAAAASPLAAAPFLLAAGPLAAALRAVSDAAAAPRWGAVGLASPGGWAAAAATALVLGVPALPRRLRLGAGALAAALLLLPGPLRAAAARARGGLEVIFVSVGQGDAALLRLPDGSAVLVDGGGAAGGGPDPGARDLVPLLRDLGVRRLEAVFVSHPHPDHVLGLEAVARAFPVARAYSNGDRGDGPAREVLAALAPVTLAPGEAWERAGVRFEALGGDRTPFAANDASLVLRATYGATTFLFPGDVEAAGEAAAVARGGLRADVVKIPHHGSRTSSTEPFVRAVRARWAVACLGAHNRFGFPHPEPLARWAAAGAEVLRTDEGAVRFLSDGRAVRRVEAGSVLDALATWREQP”, the protein production result is “failed”.

As to “MTRRTAFFFDELCLWHAAGPHALTLPVGGWVQPPAAAGHAESPETKRRLKSLLDVSGLTARLQLRSAPPASDEDLLRVHPAHYLERFKALSDAGGGSLGQDAPIGPGSYEIARLSAGLAIAALDAVLAGEADNAYSLSRPPGHHCLPDQAMGFCFFANIAVAIEAAKARHGVERVAVLDWDVHHGNGTQAIYYRRDDVLSISLHQDGCFPPGYSGAEDIGEDRGRGFNLNVPLLPGGGHDAYMQAMQRIVLPALERFRPQLIVVASGFDANAVDPLARMQLHSDSFRAMTAMVRDAAERHAGGRLVVVHEGGYSEAYVPFCGLAVIEELSGVRSAVRDPLRDFIELQQPNAAFRDFQRQRLEELAAQFGLCPAQPLQAAR”, the protein production entry was “failed”.

For “MTRTISRILVTGTSGQLGALVIEELLKKIHASHLIAAARDPKALMAFSRRGVETRLLDYTDQISIEAAFQGVERLLLVSSNVIDQRLVQHRNVIEAAARAGVGLFAYTSLLHADNSSLLLAKDHVQTEALLKGSGIPYVLLRNGWYTENYTDSIGAALVHGAVLGSAGTGRIAAATRADYAAAAAAILASDVDQAGRTYELAGDEAFTMPEYAAEIAQQSGKPVIYRDLPEAEYAAILMQVGLPESFAAILAQSDIGASQGALFDDSHQLSTLIGRPTTPLREVVAKALSAVR”, the protein production entry was “failed”.

Turning to “MTRTVTGDTVQTRWGPVQVRVTVRNGVITEVTAVACPQENPKDREINSYAIPQLRREALAAQSAQIDSVSGATYTSDGYRQSLQSALDSAGLLEHHHHHH”, the protein production entry is recorded as “not failed”.

On to “MTSASAALPQQPGRTKAFLRLVMIEHSVFALPFAYIAALTAMFQWDRNIHWVRLLLVTVAMVGLRTFAMAANRIIDREIDARNPRTAHRELVTGAMSVRHAWTGALVALVFFLGAAALLNPLCLALAPIAVIPMVVYPYGKRFTNFPQAILGLAQAMGPVGGWLAISGEWSWDAVILGLAVGVWIGGFDLIYACQDVETDREVGVMSVPARFGIQAAIWGARVCHAITTALLVWYAFATDAGAFFWFGLVIVAGAFLYEHSIVKPHDLSRLNRAFFSTNGFIGISLFVCALGDLLVRGLTV”, for which the protein production entry was “failed”.

Take “MTSGATRYRLSCSLRGHELDVRGLVCCAYPPGAFVSVSRDRTTRLWAPDSPNRSFTEMHCMSGHSNFVSCVCIIPSSDIYPHGLIATGGNDHNICIFSLDSPMPLYILKGHKNTVCSLSSGKFGTLLSGSWDTTAKVWLNDKCMMTLQGHTAAVWAVKILPEQGLMLTGSAGKTVKLWKAGRCERTFSGHEDCVRGLAILSETEFLSCANDASIRRWQITGECLEVYYGHTNYIYSISVFPNCRDFVTTAEDRSLRIWKHGECAQTIRLPAQSIWCCCVLDNGDIVVGASDGIIRVFTESEDRTASAEEIKAFEKELSHATIDSKTGDLGDINAEQLPGREHLNEPGTREGQTRLIRDGEKVEAYQWSVSEGRWIKIGDVVGSSGANQQTSGKVLYEGKEFDYVFSIDVNEGGPSYKLPYNTSDDPWLTAYNFLQKNDLNPMFLDQVAKFIIDNTKGQMLGLGNPSFSDPFTGGGRYVPGSSGSSNTLPTADPFTGAGRYVPGSASMGTTMAGVDPFTGNSAYRSAASKTMNIYFPKKEAVTFDQANPTQILGKLKELNGTAPEEKKLTEDDLILLEKILSLICNSSSEKPTVQQLQILWKAINCPEDIVFPALDILRLSIKHPSVNENFCNEKEGAQFSSHLINLLNPKGKPANQLLALRTFCNCFVGQAGQKLMMSQRESLMSHAIELKSGSNKNIHIALATLALNYSVCFHKDHNIEGKAQCLSLISTILEVVQDLEATFRLLVALGTLISDDSNAVQLAKSLGVDSQIKKYSSVSEPAKVSECCRFILNLL”: the protein production entry is listed as “failed”.

As to “MTSHHAIEVTKTVLEVADVAWTAVETYHHHHHHQDENHESTNPISDPRDRELEALRQENRRLRTLLESNLKLFETLAESAAFSHDCPSDLYARLVTMVTSRDFLARLENLRQALSNGTQNQFPFKEPTEDDVKTVEVLIEMDHQEPSWWVLVTDDMVPSNVEEQSAIDNEHYIVVNEEHVIDAVAHFLAKCIMSNPKAKNLKPEELQKLLVQEVTALSKVGKVVDIWHAGKMFYTLSTWGLAFGGLYQARGVLKIAAKGVHATSKVVLRAL”, the protein production entry is on record as “failed”.

“MTSIWGQIQHILQNTLAPGLFKVWISPLAGEVDGSTLRVEAPNEFVAGWVRDRLFEDIRTAACGVIGDTVEVVVTAGAPAAAAPRPVLAPRPAVVEVVPTAAPVPSVVPAVEARPSGHAPRRLSAETQQAQEQLGLPLDWAPVPQSRTNWRFSFDDFIVGPNNELACAAARGMCRDGLMTDTLFLSSGPGLGKTHLLHAVGRSLCESSNRSNPNVAYLTAEEFASRLIAALKARDVERFKARYRDVDVLLLEDVHFLQGKEKMQDEVLATVKALQSRGSRIVFSSSFAARDLKNVDNQLVSRFCSGFLAGIERPDFDTRRRILREKARIYQVMLPDNVTDLLAERISTDVRQIESCLHNLILKAKLLNRQISLEMAFEIIGNYAQAETQLDFEGIVRMVCEGFGLSPEQLNSRSRKREYVVARNAAYLLARKHTDLSLKEIGDRFNRRHSTVLKGITALEREMNRETPLGRQVANTISLLERNGRITHARH”: the protein production entry is “failed”.

Consider “MTSKSRPNRDLAGRLALAAQLALVLVLAAAPELALAQSTMPGQQLLTFAKNFIIAPIALFAIVISGVAAFIRPDLIKTTGYIAIIAVILYFLLANADRLMQAIRAG”, for which the protein production result is reported as “failed”.

Take “MTSNERILQPFTLPNGTELKNRLLMAPMTTCTGYFDGTVTSELVEYYRARAGSIGTIIVECCFIDDYGLAFPGAIGIDNDEKIAGLAKIAEAIKAEGSKAILQIYHGGRMVDPQLIGGRQPVAPSAIAAPREGAAMPRALSGEEVEGMIAKFGDGVRRAILAGFDGVEIHGANTYLIQQFYSPNSNQRDDEWGGSRDNRARFPLAVLDITHKMARQYADDAFIIGYRFSPEEMEVPGIRFDDTMYLLEKLAARGVDYLHFSVGATLRPSIVDTSDATPLIEKYCAMRSDTLAQVPVMGVGGVVNAADAEQGLDHGYDLIAVGRACIAYPDWASRIAAGEELELFIDSTQREALHIPEPLWRFSLVEAMIRDMSMGDAKFKPGMFVETVHDDANELVINVSLENDHIADIELAASPVQTVEFTTSFEEIRERILTANTPHVDAISGATSQSEAVKKAVAKAMLKSSKALAAEEGGNDAAPKSYDVVVVGSGGAGLAAAIQAHDEGASVLIVEKMPTIGGNTIKASAGMNAAETRFQRVKGIEDSKELFYQETLKGGHNKNNPQLLRRFVENAPQAIEWLADRGIMLNDITTTGGMSIDRTHRPRDGSAVGGYLISGLVRNITKRGIDVLLDTSVEEILMRGDEVSGVRLINDEKEVIEVQTKSIVVATGGFSANSAMVVKYRPDLEGFVTTNHKGATGSGIALLERIGAGTVDMGEIQIHPTVEQQTSYLISESIRGGGAILVNQQGNRFFNEMETRDKVSAAIIALPEHYACIVFDEHVRAKNKAADEYIAKGFVTSASSPRELAEKLGMDYHAFLATLECYNGAVEKQHDEQFGRTTALRAPINEGPFHAIRIAPGVHHTMGGVTINTDGEVLNVAQQPICGAYAAGEVVGGIHGGNRIGGNAVADIIIFGTLAGHQAAKRARG”: the protein production entry was “failed”.

For the sequence “MTSSEQPRTYWLEHAWLGTHVEPGVALDVRDGRITAVNQGVATPPPGAGILRGLTLPGLANAHSHAFHRALRGTVQVGSGTFWTWREVMYSVADRLTPDTYHALARAVYAEMALAGITAVGEFHYVHHAPGGTPYADPNAMGEALIEAAAEAGVRITLLDTCYLSSGFGEPPNTHQRRFSDGTADAWAERCSVLKERDHARIGAAIHSVRAVPADQLATVAQWAEERRAPLHVHLSEQTAENDACRQAHGRTPTRLLADHGVLGARTTGVHNTHLTDEDIALLGGSRTGTCMCLTTERDLADGIGPAAALQRAGSPLSLGSDSHAVVDLLEEARAMELNERLRTRARGHWTAAALLRAATADGHAALGWDDTGRIEAGARADLATIALDSVRTAGPLPRLGAETAVFAATAADVRHTVVGGRHVVRDGAHTLVPDVPQALARAVEALRA”, the protein production result is recorded as “failed”.

As for “MTSSMLFNITTFTYLVSMLAFFAFLASRNRHLGMAGSLISYFGFFVHTAAILLRWKESYDIGHGHAPLSNLYESVVFFAWTIVLIFGIIDLKYKYRVVGAFVMPFALLGMAWAQLTLNSGIEPLVPALQSNWLLYHVVTCFLGYAAFAVACGISIMYLIKAGKEDSSQSAQAGGIISMFPPTKILDDLNYKAIMIGFPLLTLGIITGAAWANYAWGTYWSWDPKETWSLIVWFVYAAFLHARFTRGWVGKRAAILSIVGFAATIFCYLGVNLLLSGLHSYGGG”, the protein production entry is given as “failed”.

In the case of “MTSSSQRLALLEAVVEQSFNAVLITDANLANGGPLIVYVNPAFCTMTGYTAEELIGLSPRILQGADTDPQVIERLRQCLSERLFFEGSTVNYRADGSPYVVEWKITPVRDDAGQVCNFVSVQQNISPRIRAEREQHLLAQALNAAFDPIIITDRNSTIVFANEAFQLITGYSAPEIIGQNPRMLRSGKHDALFYAQFNESLASGEPFRTTFINKRKDGSLFYAEHSISPLRNVEGAMTHYVSISQDVTTRLGREQKLLEIAHSDTLTGLDNRRAAEHTLERLINTARMAGKPFSFIICDIDHFKSVNDRYGHPAGDSVLKSVAAILKHRIRAFDVAARWGGEEFLILVPDSSLKQAAELAERVRKGVESLEIPEAGPVTISLGVAELSPGETAASLIQRADKVLYQAKRLGRNRVEIAQADDPAY”, the protein production entry was “failed”.

As to “MTSTFLLEIGTEELPADFARQALDQLQDRVGRDLLDSRLDHKSVQVLGTPRRLVVRVHGLADRQPDLEEDQKGPPIAQAFKDGVPGPAAIGFSKRCGVDPSQLEVRNTPKGECVFASVRTEGQNSVDLLQELIPAWINGLQGRRFMRWGTGSQRFSRPIRWLLALKGVDLIPVEIPGADPPVRSDRFSRGHRLHGDQPLPIDTAEDYDDTLAAAGVIVDRQQRAALIRSQLDASADQLNGLPDCPESLFEELVDLVESPRLLQGSIAERFLSLPPEVIITVMQAHQRYVPLKVPEVTPDPLQLEATVVLQRDFLLVGNGLEAADALITRGNERVLAARLADAEFFLSVDRRQPSSARREALDRVTFAEGLGSLLDRCQRIERTARQLVDQLNLDAHQGEAAIRAAHFCKHDLVSQMVGEFPELQGLMGGKYLLEEGEPTEVALAVVEHYLPRGAGDQLPSSDAGAVVALAERLELLLSIFAKGERPSGSSDPYALRRAGNGLLQIVWDRGWRLDLSRFLGSAVEDWAALFPEFAIDSSALHQDLCQLLRQRIVSQLEDEGFVPDLVQAVSAESVAT”, the protein production entry is “failed”.

Values taken from a protein production outcome set (Wang et al. 2014).
